# Target: T1, c-myc-tagged wild-type human APCDD1 (human, UniProt Q8J025 27-514, limits assumed)
# T1 construct: Expressed from pCXN2.1 in HEK293T cells; also called c-myc-tagged APCDD1; not shown: C-terminal c-myc tag
# Assay: immunoprecipitation with anti-c-myc antibody from co-transfected HEK293T cells, western blot with anti-HA
# Excerpt: To examine the 130 KDa fragment, we overexpressed both HA-tagged and c-myc-tagged APCDD1 in HEK293T cells, and performed immunoprecipitation using an anti-c-myc antibody, which was followed by western blot with an anti-HA antibody. […] By contrast, only a faint fragment, 52 KDa in size, was detected in total cell lysate of the L9R mutant construct-transfected cells (FIG. 3C; lane 2, top panel). In addition, a 65 KDa fragment was detected in the medium of the wild-type and the control L9V mutant APCDD1 construct-transfected cells, while no fragment in the medium of the L9R mutant construct-transfected cells (FIG. 3C; lanes 1-3, bottom panel).
# Immunoprecipitation. Expression plasmids of HA-tagged APCDD1 and c-myc-tagged APCDD1 (4 μg each) were co-transfected into HEK293T cells as described above. 48 h after the transfection, the cells were harvested and homogenized in lysis buffer (50 mM Tris-HCl (pH 8.0), 150 mM NaCl, 0.5% NP40, and 1× Complete Mini Protease Inhibitor Cocktail). Total cell lysates were collected by centrifugation at 14,000 rpm for 20 min at 4° C. The samples were incubated with 0.3 μg of normal rabbit IgG (Santa Cruz Biotechnology) and 10 μl of protein A/G plus agarose (Santa Cruz) for 30 min at 4° C., and centrifuged at 10,000 rpm for 1 min at 4° C. […]
binder,measurement,value
"C-terminal HA-tagged wild-type human APCDD1 (SWAMP-HA; pCXN2.1-Wt-SWAMP-HA) (receptor, Expressed from pCXN2.1 in HEK293T cells; also called HA-tagged APCDD1; HA-tagged SWAMP; not shown: C-terminal HA (hemagglutinin) tag) not shown",binding result,binds

# Source: patent US20120003244A1 (published 2012)
